From paper PMC3586674

Biological target: T1, ECudA (Entamoeba histolytica, UniProt Q24859 1-283)
T1 sequence: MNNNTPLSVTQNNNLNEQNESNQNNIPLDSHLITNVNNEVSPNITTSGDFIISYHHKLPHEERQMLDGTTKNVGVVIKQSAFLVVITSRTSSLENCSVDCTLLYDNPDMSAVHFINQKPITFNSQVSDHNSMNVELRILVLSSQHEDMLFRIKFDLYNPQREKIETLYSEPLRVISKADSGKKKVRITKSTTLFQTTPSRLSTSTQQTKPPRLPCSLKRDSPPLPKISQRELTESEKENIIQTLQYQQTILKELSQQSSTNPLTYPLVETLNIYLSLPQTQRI
Assay: competition

B1: WT 20-mer (dsDNA)
DNA 1: CACTGTGAGAATTTTCTATT
DNA 2: AATAGAAAATTCTCACAGTG
Question: Does B1 bind?
Answer: binds
